According to paper PMC12104086 (2025):

Legend:
Experiment in all cases: SPR
[1] = target: recombinant human histone H3 (human, UniProt P68431 1-136)
[2] = target: T1, recombinant human alphavbeta3 integrin (human, UniProt P06756 31-1048; P05106 27-718)
T1 chain 1: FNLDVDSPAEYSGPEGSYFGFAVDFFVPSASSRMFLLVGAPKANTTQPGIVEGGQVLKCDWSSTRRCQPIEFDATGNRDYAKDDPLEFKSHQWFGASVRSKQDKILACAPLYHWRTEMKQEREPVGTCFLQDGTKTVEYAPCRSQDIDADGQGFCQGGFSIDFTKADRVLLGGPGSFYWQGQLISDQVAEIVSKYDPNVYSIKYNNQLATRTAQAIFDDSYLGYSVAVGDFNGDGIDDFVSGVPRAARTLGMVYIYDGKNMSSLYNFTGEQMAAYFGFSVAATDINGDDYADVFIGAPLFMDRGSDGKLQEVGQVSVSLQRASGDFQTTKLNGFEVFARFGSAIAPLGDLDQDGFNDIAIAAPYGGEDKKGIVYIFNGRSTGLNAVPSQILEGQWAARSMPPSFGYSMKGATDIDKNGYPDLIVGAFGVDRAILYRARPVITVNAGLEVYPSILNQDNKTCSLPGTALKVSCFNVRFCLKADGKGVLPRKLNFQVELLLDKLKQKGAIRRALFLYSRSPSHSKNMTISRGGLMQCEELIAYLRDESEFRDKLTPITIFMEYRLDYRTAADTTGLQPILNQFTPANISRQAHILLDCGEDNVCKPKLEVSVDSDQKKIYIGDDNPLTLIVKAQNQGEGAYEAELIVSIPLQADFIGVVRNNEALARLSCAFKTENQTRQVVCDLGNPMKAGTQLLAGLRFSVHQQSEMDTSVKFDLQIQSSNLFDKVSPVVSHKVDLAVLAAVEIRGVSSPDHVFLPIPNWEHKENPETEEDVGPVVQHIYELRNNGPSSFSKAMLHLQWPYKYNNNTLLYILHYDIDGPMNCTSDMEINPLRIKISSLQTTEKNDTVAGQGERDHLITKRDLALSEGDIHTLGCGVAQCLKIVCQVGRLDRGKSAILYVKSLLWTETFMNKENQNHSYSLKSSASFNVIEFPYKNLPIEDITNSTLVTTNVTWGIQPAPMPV
T1 chain 2: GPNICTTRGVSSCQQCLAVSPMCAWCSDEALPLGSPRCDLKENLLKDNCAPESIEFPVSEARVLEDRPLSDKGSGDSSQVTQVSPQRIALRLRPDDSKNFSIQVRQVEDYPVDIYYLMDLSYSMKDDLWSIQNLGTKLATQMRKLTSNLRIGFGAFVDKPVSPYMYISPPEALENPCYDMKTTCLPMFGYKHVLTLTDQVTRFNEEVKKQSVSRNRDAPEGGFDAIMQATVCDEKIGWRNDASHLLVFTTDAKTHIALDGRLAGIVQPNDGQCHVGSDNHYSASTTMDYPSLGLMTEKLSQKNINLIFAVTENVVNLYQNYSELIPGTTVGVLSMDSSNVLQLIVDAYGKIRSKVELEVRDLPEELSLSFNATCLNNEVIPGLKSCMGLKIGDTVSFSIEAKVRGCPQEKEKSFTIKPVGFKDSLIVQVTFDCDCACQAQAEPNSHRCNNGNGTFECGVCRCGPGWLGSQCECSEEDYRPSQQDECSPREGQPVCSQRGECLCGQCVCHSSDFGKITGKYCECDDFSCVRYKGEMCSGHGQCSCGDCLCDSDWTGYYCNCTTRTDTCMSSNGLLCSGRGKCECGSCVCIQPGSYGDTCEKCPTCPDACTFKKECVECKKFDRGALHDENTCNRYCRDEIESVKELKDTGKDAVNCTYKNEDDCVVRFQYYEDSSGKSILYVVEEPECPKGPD

[3] = target: T2, recombinant mouse cold-inducible RNA-binding protein (mouse, UniProt P60824 1-172)
T2 chain: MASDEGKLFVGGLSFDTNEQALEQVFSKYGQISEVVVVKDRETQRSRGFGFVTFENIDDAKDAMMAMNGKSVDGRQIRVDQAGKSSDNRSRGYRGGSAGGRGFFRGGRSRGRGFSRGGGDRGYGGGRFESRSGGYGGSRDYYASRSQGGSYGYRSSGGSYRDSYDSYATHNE

[4] = target: T3, recombinant human high mobility group box 1 (human, UniProt P09429 1-215)
T3 chain: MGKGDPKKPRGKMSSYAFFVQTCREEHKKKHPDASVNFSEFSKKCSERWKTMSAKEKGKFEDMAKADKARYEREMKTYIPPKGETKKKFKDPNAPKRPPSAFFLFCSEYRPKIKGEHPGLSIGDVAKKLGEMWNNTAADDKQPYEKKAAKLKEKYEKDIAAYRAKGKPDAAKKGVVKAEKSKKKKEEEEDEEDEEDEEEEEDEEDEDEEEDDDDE

- Kd [1]: 2.1 nM
- Kd [2]: 1.1 nM
- Kd [3]: 1.5 nM
- Kd [4]: 3.9 nM
Binder: GNFNSSNIMKTCLQNRGD [opsonic peptide 18]
